Experimental data reported in US10738094B2, “Peptides and combination of peptides for use in immunotherapy against ovarian cancer and other cancers” (immatics biotechnologies GmbH, priority 2015, dated 2020).

target: HLA-A*02:01 (Homo sapiens, UniProt P04439, D140Y/D185E/D98H/E176V/E277Q/G131W/G231S/I119V/I121R/I166T/I218V/L300P/L318F/N151K/N90K/P208A/P217A/Q86G/Q94H/R138H/R169H/T345S); assay: MHC binding assay (UV-ligand exchange, beta2m ELISA); conditions: binding to HLA-A*02:01 ranged by peptide exchange yield (UV-ligand exchange, β2m ELISA)
Outline: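 UV-cleavable ligand in peptide-MHC complexes was exchanged for test peptide. Exchange yield came from an ELISA on streptavidin-captured complexes diluted 100 fold, detecting β2m with HRP anti-β2m (2 ug/ml, 1 h, 37° C.), TMB, A450.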

Substance | Peptide exchange
132 (LLVEQPPLAGV; listed as Homo sapiens) [compound 132] | “+++” (≥50 = +++)
160 (FLFDEEIEQI; listed as Homo sapiens) [compound 160] | “+++” (≥50 = +++)
433 (AMLNEPWAV; listed as Homo sapiens) [compound 433] | “+++” (≥50 = +++)
63 (YLLPSGGSVTL; listed as Homo sapiens) [compound 63] | “++” (≥20% = ++)
264 (SLQEQLHSV; listed as Homo sapiens) [compound 264] | “+++” (≥50 = +++)
333 (FLPDANSSV; listed as Homo sapiens) [compound 333] | “++” (≥20% = ++)
161 (ALLEGVNTV; listed as Homo sapiens) [compound 161] | “+++” (≥50 = +++)
89 (YILPTETIYV; listed as Homo sapiens) [compound 89] | “++++” (≥75% = ++++)
491 (GLNDRSDAV; listed as Homo sapiens) [compound 491] | “++” (≥20% = ++)
591 (SMAELDIKL; listed as Homo sapiens) [compound 591] | “+++” (≥50 = +++)
140 (YMDAPKAAL; listed as Homo sapiens) [compound 140] | “++” (≥20% = ++)
436 (HLAEVSAEV; listed as Homo sapiens) [compound 436] | “+++” (≥50 = +++)
240 (ILLEQAFYL; listed as Homo sapiens) [compound 240] | “+++” (≥50 = +++)
286 (YLFPGIPEL; listed as Homo sapiens) [compound 286] | “+++” (≥50 = +++)
468 (YLRSVGDGETV; listed as Homo sapiens) [compound 468] | “+++” (≥50 = +++)
580 (LLMENAERV; listed as Homo sapiens) [compound 580] | “++” (≥20% = ++)
278 (QLLDVVLTI; listed as Homo sapiens) [compound 278] | “++” (≥20% = ++)
252 (LLIGTDVSL; listed as Homo sapiens) [compound 252] | “+++” (≥50 = +++)
548 (ALWENPESGEL; listed as Homo sapiens) [compound 548] | “++” (≥20% = ++)
67 (TLLAEALVTV; listed as Homo sapiens) [compound 67] | “+++” (≥50 = +++)
617 (ALMYESEKVGV; listed as Homo sapiens) [compound 617] | “+++” (≥50 = +++)
212 (ALWDQDNLSV; listed as Homo sapiens) [compound 212] | “++” (≥20% = ++)
375 (SLTETIEGV; listed as Homo sapiens) [compound 375] | “++” (≥20% = ++)
494 (ALQPEPIKV; listed as Homo sapiens) [compound 494] | “++” (≥20% = ++)
170 (RLQETLSAA; listed as Homo sapiens) [compound 170] | “+++” (≥50 = +++)
503 (SLNHFTHSV; listed as Homo sapiens) [compound 503] | “+++” (≥50 = +++)

Substance | Peptide exchange
507 (KLIDDQDISISL; listed as Homo sapiens) [compound 507] | “+++” (≥50 = +++)
515 (LLQELVLFL; listed as Homo sapiens) [compound 515] | “+++” (≥50 = +++)
126 (VLAYFLPEA; listed as Homo sapiens) [compound 126] | “++++” (≥75% = ++++)
349 (SLTEYLQNV; listed as Homo sapiens) [compound 349] | “++++” (≥75% = ++++)
164 (ALLPQPKNLTV; listed as Homo sapiens) [compound 164] | “+++” (≥50 = +++)
461 (VMFRTPLASV; listed as Homo sapiens) [compound 461] | “++” (≥20% = ++)
398 (KLLEEDGTIITL; listed as Homo sapiens) [compound 398] | “++” (≥20% = ++)
5 (HLTEVYPEL; listed as Homo sapiens) [compound 5] | “+++” (≥50 = +++)
255 (VLASYNLTV; listed as Homo sapiens) [compound 255] | “+++” (≥50 = +++)
345 (VIWKALIHL; listed as Homo sapiens) [compound 345] | “+++” (≥50 = +++)
110 (FLSQVDFEL; listed as Homo sapiens) [compound 110] | “+++” (≥50 = +++)
72 (SLLELDGINL; listed as Homo sapiens) [compound 72] | “+++” (≥50 = +++)
103 (TLAEEVVAL; listed as Homo sapiens) [compound 103] | “+++” (≥50 = +++)
486 (AVMESIQGV; listed as Homo sapiens) [compound 486] | “+++” (≥50 = +++)
282 (LLADVVPTT; listed as Homo sapiens) [compound 282] | “+++” (≥50 = +++)
560 (ALWDIETGQQTTT; listed as Homo sapiens) [compound 560] | “+++” (≥50 = +++)
120 (ALLGIPLTLV; listed as Homo sapiens) [compound 120] | “+++” (≥50 = +++)
242 (AIAYILQGV; listed as Homo sapiens) [compound 242] | “++” (≥20% = ++)
195 (GLFADLLPRL; listed as Homo sapiens) [compound 195] | “+++” (≥50 = +++)
334 (TLTKVLVAL; listed as Homo sapiens) [compound 334] | “+++” (≥50 = +++)
128 (YLFDDPLSAV; listed as Homo sapiens) [compound 128] | “++” (≥20% = ++)
505 (SLAPGDVVRQV; listed as Homo sapiens) [compound 505] | “++” (≥20% = ++)
172 (VLYSYTIITV; listed as Homo sapiens) [compound 172] | “++” (≥20% = ++)
216 (NLWEDPYYL; listed as Homo sapiens) [compound 216] | “+++” (≥50 = +++)
392 (ALLHPQGFEV; listed as Homo sapiens) [compound 392] | “++” (≥20% = ++)
312 (IISDLTIAL; listed as Homo sapiens) [compound 312] | “+++” (≥50 = +++)

Substance | Peptide exchange
12 (SLWPDPMEV; listed as Homo sapiens) [compound 12] | “+++” (≥50 = +++)
211 (LLWPGAALL; listed as Homo sapiens) [compound 211] | “++” (≥20% = ++)
114 (SLVGEPILQNV; listed as Homo sapiens) [compound 114] | “++” (≥20% = ++)
28 (QLLDETSAITL; listed as Homo sapiens) [compound 28] | “+++” (≥50 = +++)
142 (FLFATPVFI; listed as Homo sapiens) [compound 142] | “+++” (≥50 = +++)
348 (ILLDVKTRL; listed as Homo sapiens) [compound 348] | “++++” (≥75% = ++++)
178 (ALTEIAFVV; listed as Homo sapiens) [compound 178] | “++++” (≥75% = ++++)
621 (VLMDRLPSLL; listed as Homo sapiens) [compound 621] | “++++” (≥75% = ++++)
194 (ALPLFVITV; listed as Homo sapiens) [compound 194] | “+++” (≥50 = +++)
69 (FQLDPSSGVLVTV; listed as Homo sapiens) [compound 69] | “+++” (≥50 = +++)
14 (AAYGGLNEKSFV; listed as Homo sapiens) [compound 14] | “+++” (≥50 = +++)
9 (GAAKDLPGV; listed as Homo sapiens) [compound 9] | “++” (≥20% = ++)
220 (LLQKFVPEI; listed as Homo sapiens) [compound 220] | “++” (≥20% = ++)
363 (KVLDVSDLESV; listed as Homo sapiens) [compound 363] | “++” (≥20% = ++)
456 (LLIGHLERV; listed as Homo sapiens) [compound 456] | “+++” (≥50 = +++)
52 (FLLAHGLGFLL; listed as Homo sapiens) [compound 52] | “++++” (≥75% = ++++)
305 (SIANFSEFYV; listed as Homo sapiens) [compound 305] | “++++” (≥75% = ++++)
125 (VQIHQVAQV; listed as Homo sapiens) [compound 125] | “+++” (≥50 = +++)
98 (LIIDQADIYL; listed as Homo sapiens) [compound 98] | “+++” (≥50 = +++)
614 (LLLPDQPPYHL; listed as Homo sapiens) [compound 614] | “+++” (≥50 = +++)
311 (RLYTGMHTV; listed as Homo sapiens) [compound 311] | “+++” (≥50 = +++)
530 (VMYADIGGMDI; listed as Homo sapiens) [compound 530] | “+++” (≥50 = +++)
121 (GVVDPRAISVL; listed as Homo sapiens) [compound 121] | “++” (≥20% = ++)
68 (SLMELPRGLFL; listed as Homo sapiens) [compound 68] | “++++” (≥75% = ++++)
352 (SLLELLHIYV; listed as Homo sapiens) [compound 352] | “+++” (≥50 = +++)
613 (RLLPPGAVVAV; listed as Homo sapiens) [compound 613] | “+++” (≥50 = +++)
